Experimental data from the DeepSol protein solubility set.

Experiment: soluble on expression in E. coli; label from the status in PepcDB or PDB records

MYQYDEYDQALVSERVAQFRDQIARRLDGELSEEEFLPLRLQNGLYLQKHAYMLRVAIPYGTLSAPQLRALAHVARHYDRGYGHFTTRQNIQFNWIELEQVGDILEHLAGAQMHAIQTSGNCVRNITTEAFAGVAADEWTDPRPLAEILRQWSTVNPEFLFLPRKFKIALSSAVEDRAAVQMHDIGLYLYRHPDAGELRLRVLVGGGLGRTPMLGQVIRDDLPWQHLLSYVEAILRVYNRYGRRDNKYKARIKILVKALGIEAFAREVEEEWQHLRDGPAQLTAEECQRVAERFVLPRYLPPADGELAYGSARAADPAFARWASRNVQAHKVPGYASVVLSTKPGASAPPGDVTAEQMERVADWAERYGFGEIRVAHEQNLVLPDVRLENLHALWREACAAGLGTPNQGLLSDIIACPGGDYCALANAKSIPIAQGIQQRFEDLDHLHDIGELSLNISGCMNACGHHHIGNIGILGVDKSGSEWYQVTLGGAQGKDSALGKVIGPSFSAAEVPAVIERIVETFTDLRVGPERFIDTFNRVGLEPFKARVYARMEEPA
soluble on expression in E. coli: not soluble

MGSDKIHHHHHHMTSMEFKIKRDGLALQARLETPAAPSSTLVILMHGFTADMGYDTTQFVPQLAQALVAHGLAVLRFDFNGHGCSEGRFQDMTVINEIADAKAVLDEALTLHYDHIVLAGHSQGGVVASMLAGYYPDVVDKLILMAPAATLKSDAQQGVLQGATYDPQHIPAYLNIRDGLKVGGFYLRTAQQLPIYEVAQQYAGSVTLIHVTADTVVSPQASEKYHEVYQHSQLHWVQDGGHRFSGDARATAIQLALAAFK
soluble on expression in E. coli: not soluble

MQTIKNSLGQSHDYIKMFVKEGDTVVDATCGNGNDTAFLASLVGENGRVFGFDIQDKAIANTTKKLTDLNLIDRVTLIKDGHQNMDKYIDCPVKAVMFNLGYLPSGDHSISTRPETTIQALSKAMELLVTGGIITVVIYYGGDTGFEEKEKVLEFLKGVDQKKFIVQRTDFINQANCPPILVCIEKISLEHHHHHH
soluble on expression in E. coli: not soluble

MTIYEQHFIFSDRIVPIRVRENKYARRLILRIDARGREICVTTPPAINLYSIQGFIAKHQSWIEARLARVQIAHANSYLKEGTKIPLLGIPHTIQRKEGRGITEIVAGDVRQEPKIVVYGQLEYLPRRIADVLKKQAALIITPLVKCYARKVERKVKSICYKDTKSRWGSCSIHGNLSFSWRLVMAPQEVIEYVVAHEVAHLIEMNHGPKFWALCEKLCPKSEAYRTWLKENGHMLQAVNFHSYRLEI
soluble on expression in E. coli: not soluble

KALVSIQASNIPKTAYTATDFVDMNSYSYNNITTSLPGNYADFAVIEVNLNLKNQRDQQILHDFVKPAIKAYKALGDTLELFSAKPLNQFIEQNYYLLGYPVINKGNNTANLLLAQQKSFDHNNSDHNQKSQWFTK
soluble on expression in E. coli: not soluble

MSLAYDNVMKDKKIRVGLMTDSIPGGFYNEKGEWGGFDYDIATEIAKRMGVDIERVQVNNKTRIAYVQQGRVDISVSNMTHTRERDKSVDFSITYFFDGQKVLAKKGQFKSVKDMVGKKIATMQGTTSEVNVKRALKEAGDPNPDQSVISFQKESECFQALQMGRVAGWSTDASILVGYSAKEPGKFELVGNFLAEEPYGIAMPQDDSALRDAVNAALQDMWKDGTYKTIYNKWYGPGTPFEMPLAGQIEMWPEGHHHHHH
soluble on expression in E. coli: soluble

MSLTQIQPGVEKFIKDFNDAKKKGEHAYDMTLSYQNFDKGFFNSRFQMQMTFDNGAPDLNIKPGQKVVFDVDVEHGPLPITMLMHGNVIPALAAAKVNLVNNELTQPLFIAAKNKSPVEATLRFAFGGSFSTTLDVAPAEYGKFSFGEGQFTFNGDGSSLSNLDIEGKVEDIVLQLSPMNKVTAKSFTIDSLARLEEKKFPVGESESKFNQINIINHGEDVAQIDAFVAKTRLDRVKDKDYINVNLTYELDKLTKGNQQLGSGEWSLIAESIDPSAVRQFIIQYNIAMQKQLAAHPELANDEVALQEVNAALFKEYLPLLQKSEPTIKQPVRWKNALGELNANLDISIADPAKSSSSTNKDIKSLNFDVKLPLNVVTETAKQLNLSEGMDAEKAQKQADKQISGMMTLGQMFQLITIDNNTASLQLRYTPGKVVFNGQEMSEEEFMSRAGRFVHEGHHHHHH
soluble on expression in E. coli: not soluble

PIKVDGANINITAAIYDEIQQEMKRAKVSQALFAKVAANKSQGWLCELLRWKENPSPENRTLWENLCTIRRFLNLPQHERDVIYEEES
soluble on expression in E. coli: soluble

VDLEKFKFHARIDDDFEDSYIQLLLDAAINYVSKITGVPNDENAPPEYDLAIMILALHWYTNREVLSDRGTNQVPYGLGMLIANLRTN
soluble on expression in E. coli: not soluble

MAAAVRQDLAQLMNSSGSHKDLAGKYRQILEKAIQLSGTEQLEALKAFVEAMVNENVSLVISRQLLTDFCTHLPNLPDSTAKEVYHFTLEKIQPRVISFEEQVASIRQHLASIYEKEEDWRNAAQVLVGIPLETGQKQYNVDYKLETYLKIARLYLEDDDPVQAEAYINRASLLQNESTNEQLQIHYKVCYARVLDYRRKFIEAAQRYNELSYKTIVHESERLEALKACTGTAPILVSAGDSSALGGRAIFFKDKRCQQLAAYGILEKMYVDRIIRGNQLQEFAAMLMPHQKATTADGSSILDRAVIEHNLLSASKLYNNITFEELGALLEIPAAKAEKIASQMITEGRMNGFIDQIDGIVHFETREALPTWDKQIQSLCFQVNNLLEKISQTAPEWTAQAMEAQMAQ
soluble on expression in E. coli: soluble

MNINEILKKLINKSDLEINEAEELAKAIIRGEVPEILVSAILVALRMKGESKNEIVGFARAMRELAIKIDVPNAIDTAGTGGDGLGTVNVSTASAILLSLVNPVAKHGNRAVSGKSGSADVLEALGYNIIVPPERAKELVNKTNFVFLFAQYYHPAMKNVANVRKTLGIRTIFNILGPLTNPANAKYQLMGVFSKDHLDLLSKSAYELDFNKIILVYGEPGIDEVSPIGNTFMKIVSKRGIEEVKLNVTDFGISPIPIEKLIVNSAEDSAIKIVRAFLGKDEHVAEFIKINTAVALFALDRVGDFREGYEYADHLIEKSLDKLNEIISMNGDVTKLKTIVVKSSG
soluble on expression in E. coli: soluble

MAKKTSSKGKLPPGPTPFPIIGNILQIDAKDISKSLTKFSECYGPVFTVYLGMKPTVVLHGYEAVKEALVDLGEEFAGRGSVPILEKVSKGLGIAFSNAKTWKEMRRFSLMTLRNFGMGKRSIEDRIQEEARCLVEELRKTNASPCDPTFILGCAPCNVICSVIFHNRFDYKDEEFLKLMESLHENVELLGTPWLQVYNNFPALLDYFPGIHKTLLKNADYIKNFIMEKVKEHQKLLDVNNPRDFIDCFLIKMEQENNLEFTLESLVIAVSDLFGAGTETTSTTLRYSLLLLLKHPEVAARVQEEIERVIGRHRSPCMQDRSRMPYTDAVIHEIQRFIDLLPTNLPHAVTRDVRFRNYFIPKGTDIITSLTSVLHDEKAFPNPKVFDPGHFLDESGNFKKSDYFMPFSAGKRMCVGEGLARMELFLFLTSILQNFKLQSLVEPKDLDITAVVNGFVSVPPSYQLCFIPIHHHH
soluble on expression in E. coli: soluble

MAKKVAAQIKLQLPAGKATPAPPVGPALGQHGVNIMEFCKRFNAETADKAGMILPVVITVYEDKSFTFIIKTPPASFLLKKAAGIEKGSSEPKRKIVGKVTRKQIEEIAKTKMPDLNANSLEAAMKIIEGTAKSMGIEVVD
soluble on expression in E. coli: soluble

MEILIATGRLAENTVRKAAGEKADVLVADIDIAAFITPKKLTRAFEEAGLSKKYDLILLPGLVPGDFSKVSDELDCKIRLGPKHAYDLGFVLRFAEEVEFSVKVPACELLADVRKEEALELIREAEEEAVSPLSLRGVKLGGNSRMKVMGEIVGAAELNPADLEIKIEAFIARGADIIDLGATLNTLPGQVRSTVFLAKSLTDIPISIDTLDPELIKEGIEAGADLVLSLNSTNMETAGSVVAKAGVAAVIIPDEGNSLESLVNNIESARRLGIERIIADPILDPVGHNITESIVRYHEFHRRYPDIPLFFGAGNVTELMDVDTIGVNATLCGIGAETGASILFTPEYSDKAQGSIGELKKASEMMQLCRIRESSPKDLGIDLLFIKEKRKRPDSPLPKKVITARASKNWRQDPAGPIRVRIVPDKINGNGGLIVAEHEKAAIAGESAREVMDTLIELELVSSLDHAAYLGRELEKAELALRFNRSYAQDDIF
soluble on expression in E. coli: not soluble

MAIFSRTKRVTDPLDDDAKARILSSHSYILDQDSPRLCELVHGFLEDGPEESFYDSDPDLSETSSAEHSGEASVEIVRMAVSFSDSDPYRNLLLAHVLRAVEVYSGFRSRNKTVFRDKVASFLRELGHDAAVCVSKWTSSSKLIAGSYHFIDVVHKPSDNDQKAVRYLVDLDFASEFEIARPTREYTRGLQLLPNVFVGNEENLRTIVRESCDAAKRSMKSRGLSLPPWRRSSYLQHKWFGPYKRKVGSSLGVKPLNSDAVSCRSLGFDDGAVNTRLFIRA
soluble on expression in E. coli: soluble

MSIRDERKQQSRQALLDAALQLSTGGRSFSSISLREVAREVGLVPTAFYRHFQDMDALGQELVDQVALHIKSLIHQLGQSYLQQVSTHPDSSIELFFQAINHSPLEWQFMIAERWGGSAAVRQAIAREIEDLIEDLATDLRKLPMFEHIQDSQDLKVLSTILINLSFTWAMTWLSLASQYQDAALSQHQQQFVENANTQIRLMFRGVANWG
soluble on expression in E. coli: not soluble

MKVGIVLGTKPSNPLEFWVGVEKGKFLQLDDVVVVNSKIDGTNEEIKFYGIVQEVIKYLEGVELVYDAQLVNSGVVPANLAYMARVSVTRIEPEVFIPPTPGDYVFKAEGIDFEKALYYDNMKRKIPAGLTRNGEVVYLNYDFINGREGAHISISGMSGVATKTSYALFLLYSIFQKADDRTKIHGIIFNVKGKDLLWIDKKNKRFTKEHREAFEKLGLPPEPFKNVAFWAPPEQEWSEIPSSGERLEGVFPYKWSMKDFAQEGLLRFLFAEGDEGATSLHYVIDRVSEKLQQLAKESPGDVLLDENGQEINSLGDLLKLLHEVIEDRETKRDPDRYREWFGTAATATAYAFLRRFHHAASHCKHLVHGNKSRHIDWRSHQLNVIDISDLHGIAKMFVVGSILKKIFREKEETGNPYPKIFVVLDELNKYAPKDKWSPIKEILLDIAERGRSLGVILIGAQQTASEIEKRIVANAAVKVTGRLDSSEVLSKEYEFLTGNFRQRAIMLKKGTMILYQPDIPNPVMIKFPLAPWATKKEEVEEEVSAPKEFDQF
soluble on expression in E. coli: soluble

MSLASIRTRIMILSDTHAQRFQPGLEPLEPVDLVIHCGDLTNNSTLRDYREAIHLLDSIKAPLKIVIAGNHDFSLDDKAYRRKIRETCRINQENLSGAIKAEYGQVGEAQQILLEAVAKGITFLSEGPHQLQLPSNSVLELYVSPYTPTHNCPGWGFQYDGIHDFNIKQGTDIVITHGPPLGIMDLTSNNERIGCPQLFAAVARAQPRVHCFGHVHEGWGAKLVSWRPNEGHHHHHH
soluble on expression in E. coli: not soluble

MGSDKIHHHHHHMKLPPLQIGDLKADIPIIQGGMGVGISRSSLASAVANCGGVGTISGVQIGFDEPDFETNTFNANIRALNKHIKKAKQESKRGIIAVNFMVAMNDYDKYVKSAVDAGADLIVSGAGLPTALPKIVEGSKVKIAPIVSSPKAASVICKMWDKHHGRIPDLIVVEGPEAGGHLGFKAEQVKGSHEELSDILTGVLTAIKPFEEKHGVKIPVVCGGGVFYGKDIAKYIKLGASGVQMATRFIATEECDANLNYKNVYVNCKEDDIKIVKSPVGMPGRAISNKFVQSNDKNITITKCYNCLKPCNPKDTPYCISKALINAVNGNVDEALLFTGAKSYKIDKIVKVKELINELISDAECEF
soluble on expression in E. coli: not soluble
